Data: article doi:10.1101/2024.06.13.598860, “The Mlh1-Pms1 endonuclease uses ATP to preserve DNA discontinuities as strand discrimination signals to facilitate mismatch repair”

B1: intact 75-mer duplex (dsDNA)
DNA 1: TCGACCTAAGTCTAGCAGGTCACGTCACGCTACCGAATTCTGACTTGCTAGGACATCTTTGCTCACGTTGACCCA
DNA 2: TGGGTCAACGTGAGCAAAGATGTCCTAGCAAGTCAGAATTCGGTAGCGTGACGTGACCTGCTAGACTTAGGTCGA
B2: discontinuous 75-mer duplex (single strand break) (dsDNA)
DNA 1: B1 DNA 1
DNA 2: TGGGTCAACGTGAGCAAAGATGTCCTAGCAAGTCAGA
DNA 3: ATTCGGTAGCGTGACGTGACCTGCTAGACTTAGGTCGA

What was measured:
Mlh1-Pms1 [1] = target: T1, Mlh1-Pms1 (Saccharomyces cerevisiae (yeast), UniProt P38920;P14242 1-769;1-873); assay: EMSA; 120 mM NaCl, no ATP; 20 mM HEPES-KOH (pH not given), 0.1 mM DTT, 2 mM MgCl2, 40 ug/mL BSA, 6% glycerol; plasmid DNA 3.8 nM, 10 min room temperature, agarose EMSA; oligonucleotides plus 120 mM NaCl, 10 min 4 C, 4% PAGE; conditions: protein: recombinant, copies: 1;1, label: 5'-32P on CMO169
Mlh1-Pms1 [2] = target: T1, Mlh1-Pms1; assay: EMSA; 120 mM NaCl, 0.5 mM ATP; 20 mM HEPES-KOH (pH not given), 0.1 mM DTT, 2 mM MgCl2, 40 ug/mL BSA, 6% glycerol; plasmid DNA 3.8 nM, 10 min room temperature, agarose EMSA; oligonucleotides plus 120 mM NaCl, 10 min 4 C, 4% PAGE; conditions: protein: recombinant, copies: 1;1, label: 5'-32P on CMO169
[3] = nicked duplex, blunt ends, 1:2 1:3, nick between strands 2 and 3

T1 sequence (P38920 whole entry, chain 1 of 2): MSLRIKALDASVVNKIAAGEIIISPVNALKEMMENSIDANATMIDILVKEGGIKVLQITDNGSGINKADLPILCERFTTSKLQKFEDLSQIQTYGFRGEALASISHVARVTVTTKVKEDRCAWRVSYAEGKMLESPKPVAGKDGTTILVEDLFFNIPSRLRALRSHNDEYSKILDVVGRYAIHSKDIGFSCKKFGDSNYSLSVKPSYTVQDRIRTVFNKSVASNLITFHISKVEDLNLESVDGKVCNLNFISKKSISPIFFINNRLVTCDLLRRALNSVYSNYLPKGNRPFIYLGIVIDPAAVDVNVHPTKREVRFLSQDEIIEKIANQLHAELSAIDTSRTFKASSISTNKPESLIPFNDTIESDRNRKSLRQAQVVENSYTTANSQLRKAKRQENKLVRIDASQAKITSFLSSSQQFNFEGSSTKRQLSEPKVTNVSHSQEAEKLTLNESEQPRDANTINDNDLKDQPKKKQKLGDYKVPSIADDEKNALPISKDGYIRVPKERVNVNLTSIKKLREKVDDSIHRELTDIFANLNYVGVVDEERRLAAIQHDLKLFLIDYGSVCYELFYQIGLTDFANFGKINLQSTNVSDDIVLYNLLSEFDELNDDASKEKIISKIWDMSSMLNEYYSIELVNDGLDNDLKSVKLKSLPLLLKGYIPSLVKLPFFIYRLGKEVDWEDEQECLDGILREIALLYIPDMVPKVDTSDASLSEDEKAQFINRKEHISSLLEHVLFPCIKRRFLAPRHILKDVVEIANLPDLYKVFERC
T1 sequence (P14242 whole entry, chain 2 of 2): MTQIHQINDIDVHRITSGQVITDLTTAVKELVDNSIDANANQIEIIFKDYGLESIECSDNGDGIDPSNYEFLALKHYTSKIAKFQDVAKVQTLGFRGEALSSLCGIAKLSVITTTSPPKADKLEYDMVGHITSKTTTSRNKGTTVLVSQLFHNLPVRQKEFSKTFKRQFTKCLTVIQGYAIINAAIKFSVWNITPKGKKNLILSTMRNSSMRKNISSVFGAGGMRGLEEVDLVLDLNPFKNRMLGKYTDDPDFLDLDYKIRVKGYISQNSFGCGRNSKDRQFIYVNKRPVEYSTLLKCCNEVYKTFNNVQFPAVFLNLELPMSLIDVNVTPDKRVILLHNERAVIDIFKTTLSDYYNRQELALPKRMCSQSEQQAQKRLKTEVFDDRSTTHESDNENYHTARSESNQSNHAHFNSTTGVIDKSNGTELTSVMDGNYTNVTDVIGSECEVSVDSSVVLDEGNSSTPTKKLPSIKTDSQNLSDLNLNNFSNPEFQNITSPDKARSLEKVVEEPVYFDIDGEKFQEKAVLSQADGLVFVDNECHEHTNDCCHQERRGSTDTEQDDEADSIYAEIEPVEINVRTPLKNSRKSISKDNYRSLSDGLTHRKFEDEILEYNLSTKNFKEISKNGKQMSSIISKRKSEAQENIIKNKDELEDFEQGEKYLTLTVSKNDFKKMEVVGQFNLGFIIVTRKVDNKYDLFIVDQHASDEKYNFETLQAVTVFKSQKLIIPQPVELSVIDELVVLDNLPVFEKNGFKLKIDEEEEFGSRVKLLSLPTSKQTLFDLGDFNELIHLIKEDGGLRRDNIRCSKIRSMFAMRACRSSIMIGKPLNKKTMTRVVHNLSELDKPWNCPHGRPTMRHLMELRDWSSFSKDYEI

Binder	Kd (Mlh1-Pms1 [1]; blunt) [nM]	Kd (Mlh1-Pms1 [2]; blunt) [nM]	Kd (Mlh1-Pms1 [1]; [3]) [nM]	Kd (Mlh1-Pms1 [2]; [3]) [nM]
B1	96 ± 20	79 ± 8	–	–
B2	–	–	79 ± 3	77 ± 6
